# Source: the DeepSol protein solubility set
# Assay: soluble on expression in E. coli; label from the status in PepcDB or PDB records
row,Sequence,soluble on expression in E. coli
1,MGSDKIHHHHHHMMKISFIIATLNSGGAERALVTLANALCKEHEVSIIKFHAGESFYKLENEVKVTSLEQFRFDTLYHKIASRFKKFFALRKALKESKSDVFISFLDTTNIACIAAKIGLKTPLIISEHSNEAYLKPKIWRFLRRVSYPFCDALSVLGSSDKVYYERFVKRVKLLLNPCHFSDEISFDSSFEKENLVLFIGRLDHNKNPVMFLKAIAHLDKNLQENYKFVIAGDGQLRQELEYKVKSLGIKVDFLGRVENVKALYEKAKVLCLCSFVEGLPTVLIESLYFEVCRISSSYYNGAKDLIKDNHDGLLVGCDDEIALAKKLELVLNDENFRKELVNNAKQRCKDFEISHIKEEWLKLIAEVKNA,not soluble
2,SPVSPAGSHKQQNFGLNNATQPKKSISFFATMKATSVKGYTGANQSRMAVSKTVLIPPELKTVEKPNPNIKTTQVFDINGTDVTPRPLYHPDPLTGTAKPSKLLTSQEGSLGSEFISSYSLYQNTINPSTLGQFTRSVLGSSTVSKSSVSASESIAEDLEEPSYKRERLTSFTDLQVIRAAPEKIVTKEDLEKNIEIILTETETLRFFDLPTVMVSVESEEAEKVTQRNKNYEVLCRNRLGNDLYVERMMQTFNGAPKNKDVQCDKIIMEDKGIMSTAWDLYDSYNAMELVSLSVKQSVVESSSKANVLPKDQDQRLPGSTTEKNSETSSLMDIENVILAKIHEDEEDHSDAILKSDKFHQDLFFMERVLMENIFQPKLAAYRQLPVLKEPEPEEPEDVLESAKHEEVEEESKKEEEEEIHAEESTIPANLERLWSFSCDLTKGLNVSSLAWNKTNPDLLAVGYGHFGFKEQKRGLACCWSIKNPMVTQTRIRSIFIWLLTKFS,soluble
3,MSEMSVIIEFSIVPMGEVSISKYVAEIIKLVRDRGVKYQLTPMGTILEVNSIEEGLSIIRDAHELMFKLGSKRVLTTIRIDERRDKARTMEDKVKSVMEKVESVRE,soluble
4,AELVSDKALESAPTVGWASQNGFTTGGAAATSDNIYIVTNISEFTSALSAGAEAKIIQIKGTIDISGGTPYTDFADQKARSQINIPANTTVIGLGTDAKFINGSLIIDGTDGTNNVIIRNVYIQTPIDVEPHYEKGDGWNAEWDAMNITNGAHHVWIDHVTISDGNFTDDMYTTKDGETYVQHDGALDIKRGSDYVTISNSLIDQHDKTMLIGHSDSNGSQDKGKLHVTLFNNVFNRVTERAPRVRYGSIHSFNNVFKGDAKDPVYRYQYSFGIGTSGSVLSEGNSFTIANLSASKACKVVKKFNGSIFSDNGSVLNGSAVDLSGCGFSAYTSKIPYIYDVQPMTTELAQSITDNAGSGKL,soluble
5,YDTAYGGFGRGMKFPMHHALLLLARASMAGDRRALNMLTGTLDHMLFSGVHDLVEGGLHRYSVTRDWRLPHYEKMLYDQAWIIQVLAEAYAASGDRLYLDFAVSTLEFAMSWLWTGRGFASSVDADTGEGEGAYYT,not soluble
6,MASYAELFDIGEDFAAFVGHGLATEQGAVARFRQKLESNGLPSALTERLQRIERRYRLLVAGEMWCPDCQINLAALDFAQRLQPNIELAIISKGRAEDDLRQRLALERIAIPLVLVLDEEFNLLGRFVERPQAVLDGGPQALAAYKAGDYLEHAIGDVLAIIEGAAR,soluble
7,MYSCTSPSGIKVSLSTPEIWEEFYPKTEMIVTRNRGRVIFPHLDYIIKGLDPGSLYSIYIHLERVDGIKYKFDAGEWKEFAKGDPILPIQYKEHPRGKRTGAEWMSEPVSFAHIKITNNPEIKDQKVILVQSMHKHIPVVTVKQVRHYKTGYQEDFSGEQFRLEATEFMVVTAYQNEILKNLKVHHNKFASGFRSNGKRRLSSDSENSENSPPKRSKLVTPPTISPQIDLPQQTPYYFNQNFVAPQNYQPQFASAQNYNFEVQNNAQLAWNMYYQKQYEFWWQQQQMMMPGQPQELKNEFQSL,not soluble
8,MTFQASGTTGITTLTVTEECRVQVGNVTATLARSKLKDDTAIGVIGVTALGCNGLQAALQADPDNYDATNLYMTSRNHDKLNVKLKATDGSSWTYGNGVFYKTEGGNWGGHVGISVDGNQTDKPTGEYTLNLTGGYWTNDNKQTFQASGTTGITTLTLEHHHHHH,soluble
9,MGSDKIHHHHHHMQERLIRLLEAIAGAANPPNATDLAQLTGLPRATIYRNISSLVDCGFVEVTDCGSRYVLGMRFVKIALTGKSDMHVINAVSAMMQQVVKTSGETGFLARYRGGRVDLIHIETPADPSLSYIYPGLGPRPAHACSSAKAIAAFITPELRDELLDIQPMRFNQNTITDPDQIQRELNQVRRYGYAICDGEIDEGVSSVAVPINVDRLGAIFSMGVVGPSNRIKPMVQNRILPVLSAEAVRAAAAIQHCSVVDAETTNAEALADAREGLNKTH,not soluble
10,PIDLITVGSLIELQDSQNPFQYWIVSVIENVGGRLRLRYVGLEDTESYDQWLFYLDYRLRPVGWCQENKYRMDPPSEIYPLKMASEWKCTLEKSLIDAAKFPLPMEVFKDHADL,soluble
11,MTKKSTIQPCLVCGQSSNSILFGAPSCRACGEFFRRKVISNFKIKNNCLGECSFAKKSMKPCQSCRFQKCLEAGMLEKMVFSRKAIYSISNFEKSILEELEEAYSKLEHGRNETFNPKSDSNPKFCSHEELNNTCTIDIQIILDNLISYFQAKKPMGKEQDDVLKMHFIVPFVLFDTAFRAIGKSSYISPDGTMFGGSYVEKLYQDSSNSKIGVNNGKTSREIMESYWKVSYKILKSEMELLQLDRSEFLLLSALIYWDFGLENQSDKCCENCNTIREKVLKELVKYERKKSGQNALRIAMIMGLLQAVPKALDVMKTCGFLSKIYNLRGSGCPLYAISTNSPPQ,not soluble
12,MSLTEIGIVAVGGYNEMGRNMTAIIIGEDIVILDMGLRLDRVQIHEDVEIDKMHSLELIEMGAIPDDTIMKEINGTVRAIVCTHGHLDHIGAIPKLAHRYNAPILATPYTAAIIRQQIESERKFEVCNRVIPLQAGGTYQVTEDISIEFIRVQHSIIDCVLAAVHTPAGAVLYACDFKLDRTPTMGEAPDFDRFKSLGKEGVIAMITESTNAGRSGKTPSEQIAKDMVRDVLLGTEESGVGMIVTTFASHIARLKAIIEAAEEMGRIPVLMGRSMERYVGAARDIGYLDLPSNVEIYGTRKDVDRAFKRIMQEGKNKYLPIVTGHQGEPGSILVRVANGETPYTIDPGDRIIFSANVIPSPMTQANRYALETKLRMKGGRIYDDVHVSGHAYREDHWELLRMVNPEHVIPAHGDMEMHGHYIEMAEDAGYVLGDTVHLLRNGEVLYIEEEGHHHHHH,soluble
13,MRILIASQPIAGHVLPLREIARELARRGHELRWYTGRKFRPQVEAAGAVWEGFVHARDYDDANFDAAFPGRSARRGLAQLLFDLRHVFVGQMEGQFYDLRDLERRWRPDVVLADQTVGAALLREELGGPPVALLGVLPLGIASRDTAPFGLGLAPLGGAAGQLRNRALQVLTERVVFRGISAQLADLCTWLGLPARSFAPPVAPSLMLQPSVPRLEYLRRDLPPQVRFIGPLVLPAGEFTPPAWWNDILTAERPVVLVTQGTLATRPEQLLRPALAALADEDVLVVAAGVAPERLGPLPANARAAAFVPFTALLPHVAVSLTNGGYGGTVQALSHGVPCVVAGRSEDKAEVAARVAYSGAGLNLGTATPSPARIRAAVRRVLREPAFREQAGELGHELRQHDAPREAADWLETLGGKKLEHHHHHH,not soluble
14,MPNNEASEEAKWYVVHTYSGYENKVKANLEKIVENRNLQDYILDIVVPMEEQIEIKDGKKKASLKKVFPGYVLVKMIMNDESWYVVRNTRGVTGFVGPGSKAVPLTDEEIRAMGVEEFAPVLDYEVGDNVRVVSGPLENFIGIVEEINLEKKKVRVSVSMFGRETPVELELHQIQKI,soluble
15,MKKVLLVNGPNLNRLGVREVNVYGKGTLATLEADMKQEAEAMGVELECFQSNHEGAIIDRIHEAEDIYEGIILNPGAFTHYSYAIRDAIASISIPVIEVHISNIHQRESFRHESVTAAVCAGQIVGFGFYGYKLALFALMEKLREA,not soluble
16,GMSSKAEKDIKWGIAPIGWRNDDIPSIGKDNNLQQLLSDIVVAGFQGTEVGGFFPGPEKLNYELKLRNLEIAGQWFSSYIIRDGIEKASEAFEKHCQYLKAINAPVAVVSEQTYTIQRSDTANIFKDKPYFTDKEWDEVCKGLNHYGEIAAKYGLKVAYHHHMGTGIQTKEETDRLMANTDPKLVGLLYDTGHIAVSDGDYMALLNAHIDRVVHVHFKDVRRSKEEECRAKGLTFQGSFLNGMFTVPGDGDLDFKPVYDKLIANNYKGWIVVEAEQDPSKANPLEMAQIAHRYIKQHLIEN,soluble
17,MRERAYFIGAHAYSAPIIEPALYLVATPIGNLADITLRALQVLAGVDILACEDTRVTRVLLERYGIQKKTFLYHEYNAQKAGPKLLTALEENKAIALVSDAGTPLISDPGFRLVEEARKAGHKIVPIPGASALLAALVATGLPTDSFFFAGFLSARKAQRQKRLEQLKTIPATLVFYESPHRLVETLQDMVALFSADRPAAICRELTKKFETVDVSNLGNLSESYGKQAHIRGEIVVLVGQKLSSLNVMSDHEIDEMLLELARTYSAAKAASLASKKTGLKKQELFQRLNFLKDA,not soluble
18,MSLSSLGAPAISAASFLQDLIHRYGEGDSPTLQQLKALLNHLDVGVGRGNVTQHVQGHRNLSTCFSSGDLFTAHNFSEQSRIGSSELQEFCPTILQQLDSRACTSENQENEENEGHHHHHH,soluble
19,MGSDKIHHHHHHMRIYSFYNENARRETLEEHVATALKLLDSAENSKLVKYGKKLSPEFERAVKLAIIFHDTGKVFFQIKKGYGYMSFRGHEYFSTYIFDVFARRLIKSEIENYEALSELRKICNFSIFFHHHAMNIRMREPEAGSNIKAGLKLLDVLYSEVKRFLEDKEKKALKAALEEVKEKGTANLTGYVKGEIVREVWRNAMDSSKLKRLCYLNLLVLIAADYSSAALNRGGNKTPFGRVVEEFSEFYLK,not soluble
20,GAMAPHFKEELRNLNVRYQSNATLVCKVTGHPKPIVKWYRQGKEIIADGLKYRIQEFKGGYHQLIIASVTDDDATVYQVRATNQGGSVSGTASLEVEVPAKIHLPKTLEGMGAVHALRGEVVSIKIPFSGKPDPVITWQKGQDLIDNNGHYQVIVTRSFTSLVFPNGVERKDAGFYVVCAKNRFGIDQKTVELDVADVPDPPRGVKVSDVSRDSVNLTWTEPASDGGSKITNYIVEKCATTAERWLRVGQARETRYTVINLFGKTSYQFRVIAENKFGLSKPSEPSEPTITKEDKTRAMNYDEEV,soluble
21,MSLKHYQRINELEEKKIKLRERPVIDELSKVKKLKLTGQTEALFESWRSSWDEIETRLFPDLEEVLLEAEMNTDRYKFRSATHAENDIEQMLVVIEKQMDQILGGLKELLISEEKNAKESRATKEKFAELRREVLTRGFKLGETLPYIETKLSELSESLNSYDSLTDQGDHLEAREIVIVVQKEMQVIEAQMERIPSLLHETDTILPEEMTKLRAGYEEMVRKGYYLAQMELDKEISRMKNQIDKMKKNVINLDLDEAEQGVEELHNEIDLFYDTLEHEAEARHFVKENHSPTSDKLQRQNAVSDALAEQITEVKQTYHVAEDDLAVYLKTSAKLSEAKENFEQLTALIASGEIAYSAAQDTLKEIDAALITISAEQDKFAEELRSLRKDELEARDDAERMRRAIITLDRKMERERLPGLPEEYLSLREHMGESINALEKRLEEKPLNMKAVSQDWRIAEEDLTHLTEKAEEMMENVRLVEHVIQYANRYRLRNKELADELVQAENHFYNDYQYKKALEIAVTALEKVETGAFKKVEKAYESKVSVDEGHHHHHH,soluble
